# Tested on: Asp85
# Experiment: UV-vis
# Conditions: not stated (0.02% DDM solution; pH adjusted with small amounts of HCl or NaOH); Purified, detergent-solubilised holoprotein with all-trans-retinal; no carotenoid; light adaptation not stated
row,Substance,pKa
1,Actinorhodopsin ActR-13023 E96Q (Candidatus Aquiluna sp. IMCC13023; E96Q),7.67
2,Actinorhodopsin ActR-13023 (Candidatus Aquiluna sp. IMCC13023),≈ 7.81
